Patent US11389509B1, “Methods for treatment of social dysfunction neurological disorders and seizures” (University of Virginia Patent Foundation, priority 2017, dated 2022)
Entries after “also recorded” stand apart in the source; their conditions may differ.

B1: IFN-γ: recombinant interferon-gamma cytokine (eBioscience), injected into the CSF via cisterna magna (protein, UniProt P01580 23-155, looked up)
Interferon gamma: HGTVIESLESLNNYFNSSGIDVEEKSLFLDIWRNWQKDGDMKILQSQIISFYLRLFEVLKDNQAISNNISVIESHLITTFFSNSKAKKDAFMSIAKFEVNNPQVQRQAFNELIRVVHQLLPESSLRKRKRSRC

Legend:
mice [1] = assay: Three-chamber sociability assay; assay type: in vivo, mouse; conditions: for social deficits / social behavior / social preference / social deficits: Ifng−/− mice; for social deficits / social behavior: diazepam 1.25 mg/kg i.p. 30 minutes prior to testing; for social preference / social deficits: single CSF (i.c.m.) injection of IFN-γ 20 ng, tested 24 hours post-injection
Procedure: The three-chamber sociability test was conducted as previously described^31. Briefly, mice were transported to the testing room and habituated for at least one hour. The room was maintained in dim light and a white noise generator used to mitigate any unforeseen noises. Test boxes were fabricated, in-house, by a machine shop. Test mice were placed in the center chamber with the two outer chambers containing empty wire cages (Spectrum Diversified Designs) and allowed to explore for ten minutes (habituation phase). After the habituation phase, mice were return to the center chamber. A novel mouse (an 8-10 week old male C57BL/6J˜18-22 g) was placed under one cup and an object placed under the other. Prior to testing, the novel mouse was habituated to the cup by being placed under the cup for 10 minutes, 3 times a day for 5 days. Mice were allowed to explore for an additional ten minutes (social phase). A video tracking system (CleverSys) was used to quantify the time spent around each target. For 3-chamber experiments comparing social behavior between wild-type and SCID mice, data collected using males and females were combined because no significant effects were found between genders.
A rat monoclonal antibody to murine VLA4 (clone PS/2) was affinity purified from hybridoma supernatants and was used with the kind permission of Dr. Klaus Ley (La Jolla Institute of Allergy and Immunology, San Diego, Calif.). Mice were given two separate injections (i.p.; 0.2 mg in saline per mouse), four days apart, of either anti-VLA4 or rat anti-HRP for control (clone HRPN; BioXcell), then tested twenty-four hours post final injection.
(§1) Mice were anaesthetized with a ketamine/xylazine [ketamine (100 mg/kg) and xylazine (10 mg/kg)] injection (i.p.) or isoflurane (2%), then placed into a stereotaxic frame with the head at an approximately 45° angle. The skin above cisterna magna was cleaned and sanitize before a 1 cm incision was made. The underlying muscles were separated with forceps, retracted, and a small Hamilton syringe (33 G) was used to slowly inject 1 uL of saline or IFN-γ (20 ng; eBioscience) into the cisterna magna (i.c.m.). After injection the syringe was held in place for 5 minutes to avoid back-flow of CSF. After the syringe was removed, muscles were put back in place and skin was sutured. Mice were placed on a heating pad and given ketoprofen and baytril for recovery.
Diazepam (1.25 mg/kg) was delivered i.p. for 30 minutes prior to testing for social behavior.

mice [2] = assay: PTZ induced seizures; assay type: in vivo, mouse; conditions: IFN-γ i.c.m. 24 hours prior to PTZ 40 mg/kg i.p.
Procedure: IFN-γ was injected (i.c.m.) into the CSF through the cisterna magna (i.c.m.), as described above, 24 hours prior to inducing seizures. Control mice were injected with the same volume of saline. To induce seizures, mice were injected with PTZ (40 mg/kg; i.p.). After injection, mice were placed into an empty housing cage and recorded for video analysis. Seizures were analyzed by a blinded observer using a behavior scoring system previously published^41.

[3] = tested on: layer I neocortical neurons; assay: c-fos immunohistochemistry in PFC after CSF injection; assay type: in vivo, mouse; conditions: IFN-γ injected into the CSF (i.c.m.) 2 hours prior to sacrificing
Procedure: Mice were sacrificed under Euthasol then transcardially perfused with PBS with heparin. Brains were removed and drop fixed in 4% PFA for 48 hours. After fixation, brains were washed with PBS, cryoprotected with 30% sucrose, then frozen in O.C.T. compound (Sakura Finetek) and sliced ([…]) with a cryostat (Leica). Free-floating sections were maintained in PBS+Azide (0.02%) until further processing. Immunohistochemistry for c-fos (1:1000 dilution; Millipore) on free-floating sections was performed as previously described^39.
as §1

[4] = tested on: layer 2/3 prefrontal cortical neurons; assay: Whole-cell patch-clamp of tonic inhibitory currents in acute brain slices; assay type: cell-based, mouse
Procedure: Visualized whole-cell patch-clamp recordings were performed on layer 2/3 prefrontal cortical neurons prepared from acute brain slices (adult) using the protective recovery method^42. Recordings were performed in 34° C. artificial cerebrospinal fluid (ACSF) containing (in mM) 131.5 NaCl, 25 NaHCO3, 12 D-glucose, 2.5 KCl, 1.25 NaH2PO4, 2 CaCl2, and 1 MgCl2. ACSF also contained 3 mM kynurenic acid to block synaptic excitation and […] NO-711 to enhance tonic inhibition^43. Slices were incubated in this ACSF for 5-10 minutes prior to placement in the recording chamber. The patch pipette solution with elevated chloride contained (in mM) 140 CsCl, 4 NaCl, 1 MgCl2, 10 HEPES, 0.05 EGTA, 2 Mg-ATP, and 0.4 Mg-GTP^43. Once recordings equilibrated, baseline holding current in ACSF was measured for 3.5 minutes, after which ACSF containing IFN-γ (20 pg/mL) was applied for 8.5 minutes and then washed. Data presented show the mean holding current during the last minute of control (ACSF) and drug (ACSF+IFN-γ) conditions.

Ifng−/− mice = assay: Resting-state fMRI functional connectivity of PFC/insular nodes; assay type: in vivo, mouse; conditions: single injection of recombinant IFN-γ into the CSF
Description: The protocol for rsfMRI was adapted from Zhan et al.^32. Mice were maintained under light anesthesia with (1-1.25%) isoflurane and images were acquired on a 7.0 Tesla MRI Clinscan system (Bruker, Etlingen, Germany) using a 30-mm inner-diameter mouse whole-body radiofrequency coil. High-resolution structural images were acquired by collecting 16×0.7 mm thick coronal slices using TR/TE 5,500/65 ms and an […]. A BOLD rsfMRI time series of 16×0.7 mm thick coronal slices were collected using TR/TE 4,000/17 ms and a 60o flip angle. For analysis, a structural template^33 was custom labeled using “The Mouse Brain” by Paxinos and Franklin as reference (FIGS. 6A-6C). The non-rigid transformation between the template and each individual mouse was estimated using the open source Advanced Normalization Tools (ANTs) package^34 that was then used to propagate the regional labels to each subject. […] The correlation matrix was determined from the clean fMRI data using the regions labels. […] When comparing networks from multiple sample groups, the threshold was determined by calculating the maximum threshold that leaves one of the networks connected (i.e., it is possible to reach any node in the network from any other node). […]

Molecule | social deficits / social behavior (mice [1]) | social deficits / social behavior (mice [1]; listed as Diazepam) | latency to reach each seizure stage / seizure onset (mice [2]) | maximum severity of seizures (mice [2]) | susceptibility to PTZ induced seizures (mice [2]) | c-fos+ cells in layer I of the PFC [3] | c-fos+ cells in layer I of the PFC ([3]; listed as recombinant IFN-γ) | social deficits (mice [1]; Ifngr1−/− mice, IFN-γ injected into the CSF) | social preference / social deficits (mice [1]) | social preference / social deficits (mice [1]; listed as recombinant IFN-γ) | tonic inhibition ([4]; VgatCre::Ifngr1fl/fl line, Cre− mice) | tonic inhibitory current ([4]; VgatCre::Ifngr1 fl/fl mice (IFN-γ receptor deleted from inhibitory neurons)) | tonic GABAergic inhibitory current (holding current) ([4]; slices from wild-type mice, IFN-γ 20 pg/mL in ACSF for 8.5 minutes) | hyper-connectivity in the PFC (connections of local PFC/insular nodes) (Ifng−/− mice; Jennrich test P=0.02) | hyper-connectivity in the PFC (connections of local PFC/insular nodes) (Ifng−/− mice; Jennrich test P=0.02, listed as recombinant IFN-γ)
CN1C(=O)CN=C(c2ccccc2)c2cc(Cl)ccc21 [diazepam, reference compound] | rescued social deficits | successfully rescued social behavior | – | – | – | – | – | – | – | – | – | – | – | – | –
B1 | – | – | increased latency to reach each seizure stage; also recorded: delayed seizure onset | reduced the maximum severity of seizures; also recorded: lowered seizure severity | less susceptible to PTZ induced seizures | increased the number of c-fos+ cells in Layer I of the PFC | activated layer I neocortical neurons | not rescued | sufficient to rescue social deficits | sufficient to restore their social preference | increased tonic inhibition | prevented IFN-γ from augmenting tonic inhibitory current | increases tonic GABAergic inhibitory current; also recorded: augmented tonic current | connections were reduced | reduce overall hyper-connectivity in the PFC
